# Experiments:
# [1] = Rheological properties of 1% peptides before and after DMEM treatment for 2 minutes; format: physicochemical; conditions: peptides 1%; DMEM 2 minutes; compared with weaker peptide solutions (i.e., PuraMatrix)
# Procedure: The effects of Dulbecco's modified Eagle's medium (DMEM) (pH 7.4) on the rheological properties of IEIK13 (SEQ ID NO:2), KLD12 (SEQ ID NO:3), and PuraMatrix® (SEQ ID NO:1) were evaluated on a rheometer (AR500, TA Instruments) with 40 mm plates. DMEM is generally a cell culture medium that contains 6.4 g/L of NaCl, 3.4 g/L NaHCO3 (sodium bicarbonate), minor amounts of other salts, various amino acids, and 4.5 g/L of glucose. The pH level of DMEM is generally 7.2±0.2 and the osmolality is 335±30 mOsm/Kg H2O; both measurements are close to human physiological fluids such as blood.
# Peptide solutions (1%) were kept at 4° C. for at least 48 hours before testing. To perform the experiment, 1 mL of peptide solution was gently pipetted and placed on the plate of the rheometer. 2 mL of DMEM solution was gently added around the peptide solution. The peptide solution was treated with DMEM for two minutes, then the media was removed, and the plates were placed at a measuring geometry gap at around 450 μm. Measurements were performed at 37° C. after 2 min of relaxation time. Frequency tests were performed from 1 rad/s to 100 rad/s at 1 Pa of oscillation stress.
# The rheological properties of the peptides (1%) were compared before and after DMEM treatment for 2 minutes, as shown in FIG. 1A. […]
# [2] = Mechanical properties of IEIK13 with and without Indigo Carmine; format: physicochemical; conditions: 1.5% IEIK13; 0.00585% Indigo Carmine; 24 hours post reconstitution
# Procedure: Indigo carmine powder was used to prepare a 1% solution in deionized (DI) water. Using IEIK13 (SEQ ID NO:2) powder, a 2 percent solution was prepared using DI water. The amount of IEIK13 (SEQ ID NO:2) was weighed out and the appropriate amount of DI water was added gently down the side of the container. Mixing was accomplished by vortexing for about 30 seconds, and then sonicating for 30 seconds. The solution was then centrifuged for about 10 to about 15 minutes at […]. The solution may undergo further vortexing and centrifuging until the solution is clear and without bubbles.
# To obtain a final concentration of 0.00585% indigo carmine, the necessary amount of 1% IC is added to the appropriate amount of DI water to dilute 2% IEIK (SEQ ID NO:2) to 1.5% IEIK (SEQ ID NO:2). The solution is then vortexted for about 30 seconds and centrifuged for about 10 to about 15 minutes at 3000 rpm. The solution may undergo further vortexing and centrifuging until the solution is clear and without bubbles.
# The solution was allowed to sit overnight at room temperature prior to use. The cap may be left off of the container during preparation to allow more efficient removal of bubbles.
# Visualization of hydrogel spreading throughout the lumen of the lungs was necessary for determination of feasibility. Indigo Carmine was chosen as a common contrast reagent. […]
substance,measurement,setting,value
Ile-Glu-Ile-Lys-Ile-Glu-Ile-Lys-Ile-Glu-Ile-Lys-Ile [IEIK13],fold increase of storage modulus after DMEM treatment,[1],lower-fold increase
same,mechanical properties with versus without Indigo Carmine,[2],no significant difference

# — patent publication US20220160939A1, “SELF-ASSEMBLING PEPTIDES AS BRONCHIAL OBSTRUCTION AGENTS” (3-D MATRIX, LTD., priority 2014, published 2022)
